This note sets out measurements from publication PMC4271737.

The target of experiment [1] is human angiotensin II type 1 receptor with a C-terminal GFP-H10 tag (AT1R-GFP-H10) (human) (UniProt P30556). Kind of experiment: radioligand binding; non-solubilised membranes (briefly sonicated cells); 0.5 nM [125I]Sar1 with 100 nM unlabelled Sar1; bound and free ligand separated by filtration through 96-well glass fibre filter plates without polyethyleneimine; background from parental or uninfected cells.

Experiment [2] deals with human angiotensin II type 1 receptor with a C-terminal decahistidine tag (AT1R-H10) (human) (UniProt P30556). The experiment is described as above.

As to “[^125I]sar^1-Ile^8-angiotensin II (peptide)”, the specific binding in membranes (dpm, set to 100%) in experiment [1] was determined as 12000 dpm; in experiment [2], 1400 dpm.
